According to publication PMC4436786:
“And” between values parts separate entries of the source, which are not always exact repeats. Equal entries are not always repeated. Each block holds one substance with its values, some of them ahead of it.

How the values were obtained:
[1] = biological target: AtSfh5 nodulin (soluble, recombinant) (Arabidopsis thaliana); assay: SEC
[2] = biological target: AtSfh8 nodulin (soluble, recombinant) (Arabidopsis thaliana); assay: SEC
[3] = biological target: His-tagged AtSfh1 nodulin (recombinant, solubilized in 8 M urea) (Arabidopsis thaliana); assay: SDS-PAGE
[4] = biological target: His-tagged AtSfh3 nodulin (soluble, recombinant) (Arabidopsis thaliana); assay: SEC
[5] = biological target: mRFP-AtSfh1 nodulin (WT) (Arabidopsis thaliana); assay: SEC
[6] = biological target: mRFP-AtSfh1^E485P,Q534P nodulin (Arabidopsis thaliana); assay: SEC
[7] = biological target: myc-tagged AtSfh1 nodulin (Arabidopsis thaliana); assay: SEC

Sequence of AtSfh8 nodulin (soluble, recombinant) (domain or fragment) (F4IHJ0 whole entry, the tested form may be a part): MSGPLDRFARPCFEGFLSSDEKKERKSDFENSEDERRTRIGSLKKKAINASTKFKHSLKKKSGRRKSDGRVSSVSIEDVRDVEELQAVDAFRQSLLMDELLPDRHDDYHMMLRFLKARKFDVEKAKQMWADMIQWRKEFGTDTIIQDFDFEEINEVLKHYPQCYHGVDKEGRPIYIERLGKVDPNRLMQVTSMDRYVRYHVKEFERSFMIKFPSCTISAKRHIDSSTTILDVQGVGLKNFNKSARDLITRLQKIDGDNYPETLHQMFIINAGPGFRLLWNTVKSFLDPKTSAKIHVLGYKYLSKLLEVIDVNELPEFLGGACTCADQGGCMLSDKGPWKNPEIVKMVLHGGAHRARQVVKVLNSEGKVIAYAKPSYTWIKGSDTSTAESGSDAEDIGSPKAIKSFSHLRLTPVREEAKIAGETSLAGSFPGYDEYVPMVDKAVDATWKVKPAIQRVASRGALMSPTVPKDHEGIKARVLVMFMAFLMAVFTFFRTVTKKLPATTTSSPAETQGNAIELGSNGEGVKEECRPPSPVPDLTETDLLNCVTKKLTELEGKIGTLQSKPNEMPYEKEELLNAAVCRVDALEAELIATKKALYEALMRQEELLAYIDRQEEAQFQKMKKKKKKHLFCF
Sequence of His-tagged AtSfh1 nodulin (recombinant, solubilized in 8 M urea) (domain or fragment) (F4JLE5 whole entry, the tested form may be a part): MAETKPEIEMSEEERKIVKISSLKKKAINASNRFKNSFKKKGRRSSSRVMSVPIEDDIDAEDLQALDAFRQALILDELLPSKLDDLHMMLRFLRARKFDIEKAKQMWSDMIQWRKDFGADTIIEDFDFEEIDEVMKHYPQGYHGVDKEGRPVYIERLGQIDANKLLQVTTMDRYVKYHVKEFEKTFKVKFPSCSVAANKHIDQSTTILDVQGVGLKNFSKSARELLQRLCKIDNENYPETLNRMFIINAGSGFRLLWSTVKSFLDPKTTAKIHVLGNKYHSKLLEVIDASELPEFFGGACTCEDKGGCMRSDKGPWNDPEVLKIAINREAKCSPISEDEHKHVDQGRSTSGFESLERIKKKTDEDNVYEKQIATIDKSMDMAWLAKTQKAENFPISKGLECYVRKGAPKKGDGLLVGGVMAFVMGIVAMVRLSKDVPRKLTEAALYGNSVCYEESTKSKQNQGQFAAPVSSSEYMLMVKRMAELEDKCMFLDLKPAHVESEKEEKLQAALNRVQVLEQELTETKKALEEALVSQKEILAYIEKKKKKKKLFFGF
Sequence of His-tagged AtSfh3 nodulin (soluble, recombinant) (domain or fragment) (Q93ZE9 whole entry, the tested form may be a part): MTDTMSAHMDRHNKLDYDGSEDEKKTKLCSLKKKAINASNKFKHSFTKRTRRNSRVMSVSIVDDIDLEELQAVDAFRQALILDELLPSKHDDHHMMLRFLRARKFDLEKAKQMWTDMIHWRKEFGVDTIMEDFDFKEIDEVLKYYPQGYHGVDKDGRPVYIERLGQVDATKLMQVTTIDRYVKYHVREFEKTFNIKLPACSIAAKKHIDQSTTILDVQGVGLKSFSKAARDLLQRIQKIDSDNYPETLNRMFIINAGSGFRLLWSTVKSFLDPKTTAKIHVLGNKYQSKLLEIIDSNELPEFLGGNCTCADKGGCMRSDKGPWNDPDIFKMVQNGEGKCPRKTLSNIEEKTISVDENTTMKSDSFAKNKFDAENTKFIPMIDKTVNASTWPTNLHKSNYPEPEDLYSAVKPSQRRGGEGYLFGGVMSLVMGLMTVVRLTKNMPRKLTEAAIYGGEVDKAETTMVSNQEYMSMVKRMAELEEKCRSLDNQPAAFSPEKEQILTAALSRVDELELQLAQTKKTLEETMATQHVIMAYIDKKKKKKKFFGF
Sequence of AtSfh5 nodulin (soluble, recombinant) (domain or fragment) (Q8GXC6 whole entry, the tested form may be a part): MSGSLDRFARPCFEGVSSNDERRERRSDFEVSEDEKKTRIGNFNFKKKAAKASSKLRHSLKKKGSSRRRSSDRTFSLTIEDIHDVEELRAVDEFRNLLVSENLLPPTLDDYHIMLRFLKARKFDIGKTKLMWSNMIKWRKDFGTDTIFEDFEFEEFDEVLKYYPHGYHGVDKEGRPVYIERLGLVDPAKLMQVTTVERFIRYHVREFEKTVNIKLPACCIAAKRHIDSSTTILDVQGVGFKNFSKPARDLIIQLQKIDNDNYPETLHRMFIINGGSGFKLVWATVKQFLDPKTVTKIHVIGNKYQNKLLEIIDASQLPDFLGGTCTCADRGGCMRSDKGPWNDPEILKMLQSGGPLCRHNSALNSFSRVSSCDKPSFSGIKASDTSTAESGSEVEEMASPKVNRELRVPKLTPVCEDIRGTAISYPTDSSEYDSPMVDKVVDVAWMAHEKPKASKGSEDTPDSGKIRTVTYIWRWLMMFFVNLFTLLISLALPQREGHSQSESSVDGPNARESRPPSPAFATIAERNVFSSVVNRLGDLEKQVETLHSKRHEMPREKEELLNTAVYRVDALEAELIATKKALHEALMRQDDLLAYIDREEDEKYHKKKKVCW

stoichiometry N [1]: 6
Substance: AtSfh5 nodulin (soluble, recombinant) (domain or fragment)

stoichiometry N [2]: 6
Substance: AtSfh8 nodulin (soluble, recombinant) (domain or fragment)

stoichiometry N [3]: 8
Substance: His-tagged AtSfh1 nodulin (recombinant, solubilized in 8 M urea) (domain or fragment)

stoichiometry N [4]: 6
Substance: His-tagged AtSfh3 nodulin (soluble, recombinant) (domain or fragment)

stoichiometry N [5]: 4
Substance: mRFP-AtSfh1 nodulin (WT) (domain or fragment)

stoichiometry N [6]: 2
Substance: mRFP-AtSfh1^E485P,Q534P nodulin (domain or fragment)

stoichiometry N [7]: 6 and 8
Substance: myc-tagged AtSfh1 nodulin (domain or fragment)
